Experimental data taken from the supplement of paper PMC10567573.
± gives the standard deviation.

Test: protein stability index of a GFP-peptide fusion (GPS, HEK-293T) (PSI 1-6); higher = more stable
Settings: c terminus: a fixed tail appended
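Also: 24-mer peptide tiles fused after GFP, lentivirally expressed, FACS-sorted into six equal bins by GFP/DsRed ratio, decoded by Illumina sequencing, PSI is the read-weighted mean bin number.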

Sequence: LGSQIKSLCNLEESITSAGRDDLE [FAM98B]
- protein stability index (treatment: DMSO): 4.63 ± 0.3
- protein stability index (treatment: MLN4924 1 uM, 8 h): 4.74 ± 0.17

Sequence: SIYIHVYFTKSGFHPDPRQKALYR [CLPTM1]
- protein stability index (treatment: DMSO): 2.86 ± 0.6
- protein stability index (treatment: MLN4924 1 uM, 8 h): 2.76 ± 0.22

Sequence: KLLQGEEERLKLSPSPSSRVTVSR [LMNB1]
- protein stability index (treatment: DMSO): 4.13 ± 0.23
- protein stability index (treatment: MLN4924 1 uM, 8 h): 4.13 ± 0.3

Sequence: AQEPSAVPRAGPLTVNTEAQQLLR [FOXJ1]
- protein stability index (treatment: DMSO): 4.62 ± 0.39
- protein stability index (treatment: MLN4924 1 uM, 8 h): 4.9 ± 0.17

Sequence: TCPQCHRSLILDDRGLRGFPKNRV [TRIM9]
- protein stability index (treatment: DMSO): 2.74 ± 0.22
- protein stability index (treatment: MLN4924 1 uM, 8 h): 3.16 ± 0.41

Sequence: TSPWSECTKTCGVGVRMRDVKCYQ [ADAMTSL2]
- protein stability index (treatment: DMSO): 2.81 ± 0.21
- protein stability index (treatment: MLN4924 1 uM, 8 h): 2.44 ± 0.38

Sequence: VERKRLRNRLAATKCRKRKLERIA [JUNB]
- protein stability index (treatment: DMSO): 4.07 ± 0.42
- protein stability index (treatment: MLN4924 1 uM, 8 h): 4.2 ± 0.34

Sequence: LMTSKPAEVVKILQTMLRQSAFLH [INTS4]
- protein stability index (treatment: DMSO): 2.78 ± 0.41
- protein stability index (treatment: MLN4924 1 uM, 8 h): 2.43 ± 0.29

Sequence: AAASGAAGGGGGGAGAGAPGGGRL [INTS3]
- protein stability index (treatment: DMSO): 4.98 ± 0.2
- protein stability index (treatment: MLN4924 1 uM, 8 h): 4.91 ± 0.26

Sequence: CQVALNFANEEEAKKFRKAVTDLL [WASL]
- protein stability index (treatment: DMSO): 1.91 ± 0.35
- protein stability index (treatment: MLN4924 1 uM, 8 h): 2.53 ± 0.84

Sequence: GGGGGGGGKSGGIVISPFRLEELT [CCDC6]
- protein stability index (treatment: DMSO): 3.34 ± 0.12
- protein stability index (treatment: MLN4924 1 uM, 8 h): 3.59 ± 0.41

Sequence: TPMATKRSGAGVALLNDHIYVVGG [KLHL12]
- protein stability index (treatment: DMSO): 2.91 ± 0.26
- protein stability index (treatment: MLN4924 1 uM, 8 h): 2.71 ± 0.31

Sequence: NAKLAADDFRTKYQTEQSLRQLVE [KRT33B]
- protein stability index (treatment: DMSO): 3.4 ± 0.26
- protein stability index (treatment: MLN4924 1 uM, 8 h): 3.48 ± 0.14

Sequence: LPVSSPEPPPALPPAADAPVTQIG [TRIM55]
- protein stability index (treatment: DMSO): 5.23 ± 0.13
- protein stability index (treatment: MLN4924 1 uM, 8 h): 5.33 ± 0.12

Sequence: PEFVAPEIVNYEPLGLEADMWSIG [DAPK3]
- protein stability index (treatment: DMSO): 3.46 ± 0.24
- protein stability index (treatment: MLN4924 1 uM, 8 h): 3.93 ± 0.7

Sequence: YKRRIDAENSPYLNPQLVQPAKKP [ESRRG]
- protein stability index (treatment: DMSO): 4.01 ± 0.27
- protein stability index (treatment: MLN4924 1 uM, 8 h): 3.85 ± 0.33

Sequence: KMEIYQKENKDVIQKNKLKLTREQ [MNAT1]
- protein stability index (treatment: DMSO): 3.89 ± 0.41
- protein stability index (treatment: MLN4924 1 uM, 8 h): 4.16 ± 0.34

Sequence: SDCEEEEEEEEEEGSGHSTGEDSA [WEE1]
- protein stability index (treatment: DMSO): 5.57 ± 0.2
- protein stability index (treatment: MLN4924 1 uM, 8 h): 5.49 ± 0.33

Sequence: VPTTPGPASGSTFRGRRDVSGSWE [RETREG3]
- protein stability index (treatment: DMSO): 4.37 ± 0.2
- protein stability index (treatment: MLN4924 1 uM, 8 h): 4.44 ± 0.15

Sequence: LRVEFAAENYLSGGGPGDGGGADT [FBXO33]
- protein stability index (treatment: DMSO): 4.16 ± 0.18
- protein stability index (treatment: MLN4924 1 uM, 8 h): 4.13 ± 0.26

Sequence: QIITVTVQTGLDQYQQVPVEIVKS [IQUB]
- protein stability index (treatment: DMSO): 2.32 ± 0.17
- protein stability index (treatment: MLN4924 1 uM, 8 h): 2.07 ± 0.38

Sequence: SRIKGWWVFHHYVSTFLSGVMLTW [TMEM120A]
- protein stability index (treatment: DMSO): 2.55 ± 0.24
- protein stability index (treatment: MLN4924 1 uM, 8 h): 2.37 ± 0.36

Sequence: FSVAPHETQTQRGGEFQCGLEAAS [RNF180]
- protein stability index (treatment: DMSO): 3.37 ± 0.41
- protein stability index (treatment: MLN4924 1 uM, 8 h): 3.36 ± 0.14

Sequence: AGNDPYCFVEFHEHRHAAAALAAM [TIA1]
- protein stability index (treatment: DMSO): 2.66 ± 0.17
- protein stability index (treatment: MLN4924 1 uM, 8 h): 2.7 ± 0.25

Sequence: LKTSRKDVKDKETTENENTKFEVR [CHGB]
- protein stability index (treatment: DMSO): 5.03 ± 0.11
- protein stability index (treatment: MLN4924 1 uM, 8 h): 5.22 ± 0.092

Sequence: YLQIFATRRSCIDESQISAEEAED [FAM189A2]
- protein stability index (treatment: DMSO): 3.71 ± 0.14
- protein stability index (treatment: MLN4924 1 uM, 8 h): 3.92 ± 0.32

Sequence: RNGGKYCEGRRTRFRSCNTEDCPT [ADAMTS4]
- protein stability index (treatment: DMSO): 4.15 ± 0.34
- protein stability index (treatment: MLN4924 1 uM, 8 h): 4.09 ± 0.32

Sequence: FPLMTIEEFAAGPAQSGILSDREV [BTBD1]
- protein stability index (treatment: DMSO): 3.83 ± 0.33
- protein stability index (treatment: MLN4924 1 uM, 8 h): 3.98 ± 0.18

Sequence: MDVTSRCTLGDPNKLPEGVPQPAR [KLHL20]
- protein stability index (treatment: DMSO): 4.64 ± 0.28
- protein stability index (treatment: MLN4924 1 uM, 8 h): 4.72 ± 0.23

Sequence: VLRSRIRFIHLVTGCVLGSSGKVL [POMT2]
- protein stability index (treatment: DMSO): 2.62 ± 0.59
- protein stability index (treatment: MLN4924 1 uM, 8 h): 2.63 ± 0.76

Sequence: GRLYVHPDSPATGAHWMRQLVSFQ [TBX5]
- protein stability index (treatment: DMSO): 2.32 ± 0.26
- protein stability index (treatment: MLN4924 1 uM, 8 h): 2.34 ± 0.2

Sequence: TLRPTDSQSHCYRTCFSPASDGSD [PCDHGC5]
- protein stability index (treatment: DMSO): 3.93 ± 0.25
- protein stability index (treatment: MLN4924 1 uM, 8 h): 4.04 ± 0.28

Sequence: AGQRGEPGPKGDPGEKSHWGEGLH [EMID1]
- protein stability index (treatment: DMSO): 4.34 ± 0.36
